The values that follow come from US20210340233A1 (CRESCENDO BIOLOGICS, published 2021).

The target in experiment [1] is T1, Cyno Serum Albumin (CSA) (cynomolgus, UniProt A2V9Z4 25-608).
T1 construct: Bought protein; also called cynomolgus serum albumin
In words: BIAcore (Affinity), pH5; pH 5. In general terms: Surface plasmon resonance follows binding to a sensor surface in real time, without labels.

The target in experiment [2] is T2, Human Serum Albumin (HSA) (human, UniProt P02768 25-609).
T2 construct: Recombinant HSA from Sigma A9731 is named only for immunisation
In words: BIAcore (Affinity), pH5; pH 5.

The target in experiment [3] is T1, Cyno Serum Albumin (CSA). The experiment can be described thus: BIAcore (Affinity), pH7; pH 7.
For experiment [4], the target named is T2, Human Serum Albumin (HSA). In words: BIAcore (Affinity), pH7; pH 7.
Experiment [5] has as its target T1, Cyno Serum Albumin (CSA). In words: BLI (Octet RED384), albumin amine-coupled to AR2G biosensor, 1:1 model.
Description: (§1) Binding studies with human, cyno and mouse serum albumin were carried out using the FortéBio OCTET RED384 instrument. Serum albumin (HSA, CSA, MSA) were coupled to AR2G biosensors by amine coupling using the amine reagent coupling kit (2nd generation, FortéBio). Briefly AR2G biosensors were rehydrated in water and then activated using EDC/sNHS reagents over 10 minutes. The activated biosensors were dipped into wells containing diluted serum albumin (HSA, CSA, MSA) to 10 ug/ml in 10 mM sodium acetate pH 5.0 for 10 minutes before free active sites were quenched using 1M Ethanolamine pH 8.5 over 10 minutes. These were then dipped into 10 mM glycine pH 2.5 to stabilise the surface. […] Anomalous or poorly fitting curves were excluded from the analysis.
Experiment [6] addresses T2, Human Serum Albumin (HSA). The experiment is described as above.
Description: as §1
The target in experiment [7] is mouse serum albumin (MSA) (mouse, UniProt P07724 25-608). The experiment can be described thus: BLI (Octet RED384), albumin amine-coupled to AR2G biosensor. On the technique in general: Biolayer interferometry detects binding as a change in optical thickness at a sensor tip.
mouse serum albumin (MSA), sequence (P07724 25-608 limits assumed): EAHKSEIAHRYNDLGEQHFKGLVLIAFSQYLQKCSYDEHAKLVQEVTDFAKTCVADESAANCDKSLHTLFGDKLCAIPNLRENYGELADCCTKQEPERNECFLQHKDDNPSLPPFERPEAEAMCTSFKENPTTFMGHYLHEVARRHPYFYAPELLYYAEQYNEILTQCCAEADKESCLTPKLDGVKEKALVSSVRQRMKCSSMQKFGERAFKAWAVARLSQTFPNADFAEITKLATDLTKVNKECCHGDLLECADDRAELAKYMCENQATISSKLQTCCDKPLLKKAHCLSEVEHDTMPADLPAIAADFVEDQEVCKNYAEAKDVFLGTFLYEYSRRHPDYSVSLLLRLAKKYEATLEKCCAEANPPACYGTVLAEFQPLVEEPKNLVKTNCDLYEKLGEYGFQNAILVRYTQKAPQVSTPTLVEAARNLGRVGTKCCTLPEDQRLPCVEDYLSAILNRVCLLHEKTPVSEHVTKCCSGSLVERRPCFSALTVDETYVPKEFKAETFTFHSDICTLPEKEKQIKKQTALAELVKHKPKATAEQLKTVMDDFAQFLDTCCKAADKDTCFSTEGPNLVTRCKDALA
Description: as §1

B1: Variant of SEQ ID NO. 1 with E111→D and R115→Q (VHH)
VHH: EVQLVESGGGLVQPGRSLRLSCAASGFTFHHYAMHWVRQAPGKGLEWVSGISWNGNKITYADSVKGRFTISRDNAKNSLYLQMNSLRAEDTALYYCVRDSSLFIVGAPTFDHWGQGTLVTVSS
notes: Human single VH domain
With B1, the Kd with Cyno Serum Albumin (CSA) [1] came to 0.099 µM; in experiment [2], 0.013 µM; in the experiment with Cyno Serum Albumin (CSA) [3], 0.067 µM; in experiment [4], 0.006 µM. Besides, the koff in the experiment with Cyno Serum Albumin (CSA) [1] worked out at 0.0241 s⁻¹; in experiment [2] it was 0.00319 s⁻¹; in the experiment with Cyno Serum Albumin (CSA) [3], 0.0168 s⁻¹; in experiment [4], 0.00162 s⁻¹. The kon in the experiment with Cyno Serum Albumin (CSA) [1] amounted to 244000 M⁻¹ s⁻¹; in experiment [2], 242000 M⁻¹ s⁻¹; in the experiment with Cyno Serum Albumin (CSA) [3], 250000 M⁻¹ s⁻¹; in experiment [4], 255000 M⁻¹ s⁻¹.

B2: Humabody ® 1 (SEQ ID NO. 1) (VHH)
VHH: EVQLVESGGGLVQPGRSLRLSCAASGFTFHHYAMHWVRQAPGKGLEWVSGISWNGNKITYADSVKGRFTISRDNAKNSLYLQMNSLRAEDTALYYCVRDSSLFIVGAPTFEHWGRGTLVTVSS
notes: Human single VH domain antibody from transgenic mice, not camelid; also called Humabody ® 1 VH; Humabody ® 1-ctag
With B2, the Kd with Cyno Serum Albumin (CSA) [1] worked out at 0.096 µM; in experiment [2] it was 0.012 µM; in the experiment with Cyno Serum Albumin (CSA) [3], 0.033 µM; in experiment [4], 0.003 µM.

B3: trispecific molecule (SEQ ID NO. 17) including Humabody ® 1 (bispecific antibody)
chain: EVQLVESGGGVVQPGRSLRLSCAASGFSFSGYGMHWVRQAPGKGLEWVAYISYDGSNKYYADSVKGRFTISRDNSKNTLYLQMNSLRAEDTAVYYCAKDPAWGLRLGESSSYDFDIWGQGTMVTVSSGGGGSGGGGSGGGGSGGGGSGGGGSGGGGSEVQLVESGGGLVQPGGSLRLSCAASGFTLSNYWMNWVRQAPGKGLEWVANINQDGSERYYVDSVKGRFTISRDNAKNSLYLQMNSLRAEDTAVYYCARGGEGYGVDHYGLDVSGQGTTVTVSSGGGGSGGGGSGGGGSGGGGSGGGGSGGGGSEVQLVESGGGLVQPGRSLRLSCAASGFTFHHYAMHWVRQAPGKGLEWVSGISWNGNKITYADSVKGRFTISRDNAKNSLYLQMNSLRAEDTALYYCVRDSSLFIVGAPTFEHWGRGTLVTVSSGGGGSGGGGSGGGGSGGGGS
notes: 1 at the C-terminal end; also called trivalent compound; trivalent construct
On to B3, for which, in the experiment with Cyno Serum Albumin (CSA) [5], the Kd came to 0.102 µM, the off-rate constant (koff) worked out at 0.0147 s⁻¹ and the kon was 144000 M⁻¹ s⁻¹. In experiment [6], this molecule displayed a Kd of 0.00483 µM, a koff of 0.00108 s⁻¹ and a kon of 238000 M⁻¹ s⁻¹. Besides, the binding result in experiment [7] is listed as “no binding (tested: top concentration 1500 nM)”.

Usually Kd stands for the equilibrium constant for the complex coming apart. The low end stands for a tighter complex, the high end for a looser complex. The term koff denotes the first-order rate constant of dissociation. High values mean a short-lived complex, low ones a long-lived complex. For orientation: kon means the second-order rate constant of association.
